# Assay results taken from paper PMC12858339 (The Journal of Biological Chemistry, 2025).
# B1: myristoylated M-PMV MA protein extended by 18 amino acids of the downstream phosphoprotein region of Gag (myrMAPP) (domain or fragment)
# chain: GQELSQHERYVEQLKQALKTRGVKVKYADLLKFFDFVKDTCPWFPQEGTIDIKRWRRVGDCFQDYYNTFGPEKVPVTAFSYWNLIKELIDKKEVNPQVMAAVAQTEEILKSNSQTDL
# modifications: N-terminal myristoyl; uniformly 15N-labelled in some NMR and mixed-isotope XL-MS samples
# notes: source: E. coli BL21 (DE3), co-transformed with a plasmid coding yeast N-myristoyl transferase, purified (Ni-NTA agarose)
# B2: non-myristoylated M-PMV MA protein extended by 18 amino acids of the downstream phosphoprotein region of Gag (MAPP) (domain or fragment)
# chain: GQELSQHERYVEQLKQALKTRGVKVKYADLLKFFDFVKDTCPWFPQEGTIDIKRWRRVGDCFQDYYNTFGPEKVPVTAFSYWNLIKELIDKKEVNPQVMAAVAQTEEILKSNSQTDL
# Target: T1, calmodulin (CaM), human calmodulin-1 (human, UniProt P0DP23 1-149)
# T1 construct: also called CaM-NHS-Red
# Assay: MST; Red-NHS-labelled CaM kept constant (466 nM in the results, 50 nM in the methods), (myr)MAPP titrated; 50 mM Tris-HCl, 100 mM NaCl, 0.05% Tween 20, pH 7.4, with 20 mM CaCl2; 25 °C; triplicates
# Conditions: both partners purified
row,Binder,Kd [µM]
1,B1,4.2
2,B2,33
